Consider 1 substance from publication PMC6054379.

Experiment [1] concerns the target Staphylococcus aureus protein A (Staphylococcus aureus) (UniProt P38507). The experiment is described as follows: particle-based immunoassay read by flow cytometry; protein A covalently coupled (EDC/sulfo-NHS) to 2.35 μm carboxylated PS beads; 10 μg purified BBM.1 in 1 mL PBS pH 8.2, 2 h; detected with GαM-AF488.
The target is the same in experiment [2]. Briefly: particle-based immunoassay read by flow cytometry; protein A covalently coupled (EDC/sulfo-NHS) to 6 μm (PAH/PAA)2 polyelectrolyte microcapsules; 10 μg purified BBM.1 in 1 mL PBS pH 8.2, 2 h; detected with GαM-AF488; dose-response also in PBS pH 7.2 and complete RPMI. A general note: Flow cytometry measures light scatter and fluorescence of single cells or particles in a stream.

For the substance murine monoclonal antibody BBM.1, the mean fluorescence intensity (MFI) in experiment [1] turned out to be 12.2; in experiment [2], 33.5.
